{
  "source": "patent US6893843B2",
  "about": "“Nucleic acids” (priority 1990, dated 2005)",
  "key": {"human leukocyte elastase": {"biological_target": "T1, human leukocyte elastase (Homo sapiens, UniProt P08246)", "T1 construct": "purchased Elastin Products Corporation, Pacific, Mo., USA", "T1 sequence (P08246 30-267)": "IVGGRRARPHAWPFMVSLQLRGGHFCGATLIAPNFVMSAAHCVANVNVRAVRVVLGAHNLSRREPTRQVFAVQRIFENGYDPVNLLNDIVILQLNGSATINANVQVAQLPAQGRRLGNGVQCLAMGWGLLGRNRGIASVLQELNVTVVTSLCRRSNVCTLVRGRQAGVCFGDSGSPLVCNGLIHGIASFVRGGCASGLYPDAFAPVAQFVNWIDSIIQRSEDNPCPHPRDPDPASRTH", "assay": "Inhibition of human leukocyte elastase (AAPVpNA substrate; Ki by Green and Work)", "type": "biochemical", "details": "for Ki: method of Green and Work", "protocol": "The potency of polypeptides of the present invention to act as an elastase inhibitor was determined by the ability of a compound of the invention to inhibit the action of human leukocyte elastase (HLE) on a low molecular weight peptide substrate. The potency of an inhibitor was evaluated by obtaining a kinetic determination of the dissociation constant, Ki, of the complex formed from the interaction of th inhibitor with HLE. The substrate used was the anilide methoxysuccinyl-alanyl-alanyl-prolyl-valine-p-nitroanilide as described by K. Nakajima et al. in the J. Biol. Chem., 254: 4027-4032 (1979) and by T. Teshima et al. in J. Biol Chem., 257: No 9, 5085-5091 (1982). The HLE enzyme used in these studies may be obtained from Elastin Products of St. Louis, Mo. or can be purified according to B. R. Viscarello et al. in Preparative Biochemistry, Vol. 13, pages 57-67, (1983).\nThe activity of human leukocyte elastase (EC 3.4.21.37) was determined according to the method of Nakajima et al (7). Inhibition of HLE was determined by the use of the synthetic peptide methoxy-succinyl-alanyl-alanyl-prolyl-valyl-p-nitro anilide (AAPVpNA, Sigma).\nSample (100 μl) and 100 μl HLE (200 ng/ml; Elastin Products Corporation, Pacific, Mo., USA) in assay buffer (0.1M, HEPES, 0.5M NaCl, 10% DMSO, pH 7.5) were incubated for 30 minutes at room temperature. Substrate (800 μl 0.5 mM) in assay buffer was then added.\nChanges in absorbance at 405 nm were followed up to 1 hour and the %-inhibition was calculated from the remaining activity and controls. The dissociation constant (Ki) was determined according to the method of Green and Work (8) in the same system, using 2 mM substrate and (1 μg/ml) HLE (final concentrations)."}, "[1]": {"biological_target": "porcine pancreatic elastase (Sus scrofa, UniProt P00772)", "sequence (P00772 27-266)": "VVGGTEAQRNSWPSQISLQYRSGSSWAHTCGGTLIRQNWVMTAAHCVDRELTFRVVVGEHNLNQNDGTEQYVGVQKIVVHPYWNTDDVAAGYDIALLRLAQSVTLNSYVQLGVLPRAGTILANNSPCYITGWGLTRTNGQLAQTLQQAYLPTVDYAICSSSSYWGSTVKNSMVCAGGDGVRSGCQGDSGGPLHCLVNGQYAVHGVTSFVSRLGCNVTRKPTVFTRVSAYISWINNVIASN", "assay": "Inhibition of porcine pancreatic elastase (AAPV-AFC fluorogenic substrate)", "type": "biochemical", "protocol": "The activity of porcine pancreatic elastase (E.C. 3.4.21.36) was determined using the flourogenic substrate methoxy-succinyl-alanyl-alanyl-prolyl-valyl-trifluoromethylcoumarine (AAPV-AFC, Bachem, Bubendorf, Switzerland).\nElastase (100 μl) and inhibitor (100 μl) were pre-incubated for 30 minutes. A solution of substrate (1.8 ml of a 0.1 mM solution) was then added. Flourescence, Ex 400 Em 505, was followed and the %-inhbition was calculated from the initial activity of samples and controls. The dissociation constant (Ki) was determined according to the method of Green and Work (8)."}, "human cathepsin G": {"biological_target": "T2, human cathepsin G (Homo sapiens, UniProt P08311)", "T2 sequence (P08311 21-255)": "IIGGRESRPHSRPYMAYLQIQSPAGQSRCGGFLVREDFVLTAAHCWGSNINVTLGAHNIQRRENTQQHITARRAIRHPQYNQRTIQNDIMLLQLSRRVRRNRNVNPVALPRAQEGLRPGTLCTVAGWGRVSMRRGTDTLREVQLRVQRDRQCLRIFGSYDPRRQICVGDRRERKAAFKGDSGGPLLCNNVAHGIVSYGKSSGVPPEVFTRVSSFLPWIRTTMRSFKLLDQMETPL", "assay": "Inhibition of cathepsin G (AAPFpNA substrate)", "type": "biochemical", "details": "substrate 0.5 mM AAPFpNA; inhibitor up to 1 μg/ml (threefold molar); n.i. = no inhibition", "protocol": "(§1) The activities of cathepsin G and Alpha-chymotrypsin were determined according to the method of Nakajima et al (9) using an analogue to HLE—succinyl-alanyl-alanyl-prolyl-phenylalanyl-p-nitroanilide (AAPFpNA, Sigma). For inhibition experiments, the highest concentration of the inhibitor was 1 μg/ml, representing a threefold molar concentration as compared to cathepsin G and Alpha-chymotrypsin."}, "Alpha-chymotrypsin": {"biological_target": "Alpha-chymotrypsin (Bos taurus, UniProt P00766)", "assay": "Inhibition of Alpha-chymotrypsin (AAPFpNA substrate)", "type": "biochemical", "protocol": "as §1"}, "trypsin": {"system": "trypsin", "assay": "Inhibition of trypsin (TGPLpNA substrate)", "type": "biochemical", "protocol": "(§2) 100 μl inhibitor (1 μg/ml) and 100 μl trypsin (1 μg/ml) or plasmin (1 μg/ml) as appropriate were incubated for 30 minutes before adding the substrate, 0.1 mM tosyl-glycyl-prolyl-lysin-pNA (Boehringer Mannheim, FRG) in 0.05M HEPES, 0.12M NaCl, pH7.5."}, "plasmin": {"biological_target": "plasmin (Homo sapiens, UniProt P00747)", "sequence (P00747 581-810 limits assumed, species assumed)": "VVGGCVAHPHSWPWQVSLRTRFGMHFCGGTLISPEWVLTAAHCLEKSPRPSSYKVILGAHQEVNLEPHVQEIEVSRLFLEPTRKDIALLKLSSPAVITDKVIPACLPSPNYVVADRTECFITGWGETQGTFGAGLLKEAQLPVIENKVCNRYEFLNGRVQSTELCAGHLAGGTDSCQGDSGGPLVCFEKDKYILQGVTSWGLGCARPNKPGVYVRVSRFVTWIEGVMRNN", "sequence (P00747 97-580 partner limits assumed, species assumed)": "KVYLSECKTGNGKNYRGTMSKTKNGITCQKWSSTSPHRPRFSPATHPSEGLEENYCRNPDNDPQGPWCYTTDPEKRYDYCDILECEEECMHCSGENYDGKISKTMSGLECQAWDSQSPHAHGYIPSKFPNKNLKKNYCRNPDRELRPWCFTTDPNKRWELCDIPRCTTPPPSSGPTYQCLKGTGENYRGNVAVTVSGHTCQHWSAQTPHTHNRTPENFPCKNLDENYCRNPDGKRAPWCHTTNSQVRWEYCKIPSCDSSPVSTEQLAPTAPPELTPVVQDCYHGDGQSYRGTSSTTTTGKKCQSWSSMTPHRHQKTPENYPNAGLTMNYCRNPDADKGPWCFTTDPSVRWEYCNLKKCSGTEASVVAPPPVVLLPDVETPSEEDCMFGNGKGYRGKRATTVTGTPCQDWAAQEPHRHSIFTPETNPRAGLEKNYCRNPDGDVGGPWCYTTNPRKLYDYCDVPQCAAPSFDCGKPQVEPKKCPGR", "assay": "Inhibition of plasmin (TGPLpNA substrate)", "type": "biochemical", "protocol": "as §2"}, "Proteinase 3": {"biological_target": "T3, Proteinase 3 (Homo sapiens, UniProt P24158)", "T3 construct": "Proteinase 3 was purified from human polymorphonuclear leukocytes using the method of Ludemann; from tissue; host or cells: human polymorphonuclear leukocytes", "T3 sequence (P24158 28-256)": "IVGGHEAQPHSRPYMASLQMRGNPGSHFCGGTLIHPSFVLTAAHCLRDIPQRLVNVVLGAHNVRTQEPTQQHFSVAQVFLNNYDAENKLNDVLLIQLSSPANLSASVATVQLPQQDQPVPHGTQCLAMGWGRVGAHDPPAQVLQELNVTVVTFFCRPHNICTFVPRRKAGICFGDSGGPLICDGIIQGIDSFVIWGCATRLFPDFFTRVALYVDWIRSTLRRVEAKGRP", "assay": "Inhibition of proteinase 3 (elastin-FITC hydrolysis)", "type": "biochemical", "details": "37° C., 4 hours, pH 8.5, read-out: IC50 against proteinase 3", "protocol": "Proteinase 3 was purified from human polymorphonuclear leukocytes using the method of Ludemann reported in J Exp Med 171, 357-362, 1990. The absence of human leukocyte elastase and cathespin G was confirmed by the lack of activity of the proteinase 3 preparation with the substrates methoxy-succinyl-ala-ala-pro-val-p-nitroanilide (AAPVpNA), and succinyl-ala-ala-phe-p-nitroanilide respectively according to the method of Nakajima (7).\nThe elastinolytic activity was determined by hydrolysis of bovine ligamentum nuchae elastin-FITC (Elastin Products Corporation, USA).\nThe proteinase 3 preparation (1 μl) was preincubated at 37° C. for 30 minutes with the elastase inhibitor of formula I (0-1 μg) in carbonate buffer (50 μl, 0.1M), NaN3 (0.02%), Brij 35 (0.01%), pH8,5. Elastin-FITC (1 mg) in carbonate buffer (100 μl, 0.1M), NaN3 (0.02%), Brij 35 (0.01%), pH8.5. The mixture was incubated at 37° C. with gentle agitation for 4 hours, and then centrifuged at 6000×g. The supernatants were diluted 1:20 and the fluorescence of the solubilised elastin-FITC was determined using a Perkin Elmer LS 50 microtiterplate reader at Ex489 nm, Em 513 nm. Fluorescence was corrected by enzyme free controls and inhibition expressed in % of inhibitor free controls."}, "Isoelectric focussing": {"assay": "Isoelectric focussing", "type": "physicochemical", "details": "silver stain and enzymatic detection in gel slices", "protocol": "Isoelectric focussing was performed by using Servalyt Precoates pH 3-10 and Test-Mix 9 (Serva). Prefocussing was for 30 minutes at 3 watts, and silver stain (Sigma) or Comassie blue R stain was used according to Serva instructions. In parallel, the precoates were sliced and eluted to localise inhibitory active peptides. Approximately 1 mm slices were eluted with 100 μl acetonitrile. The eluates were allowed to dry and were resolved in 100 μl of buffer (0.1M HEPES, 0.5M NaCl, 1% BSA, pH 7.5) containing 20 ng HLE. After 30 minutes incubation the remaining HLE activity was determined."}, "Acid stability": {"assay": "Acid stability", "type": "physicochemical"}, "[2]": {"details": "at least threefold excess of the inhibitor"}, "[3]": {"details": "substrate 0.1 mM TGPLpNA, inhibitor 1 μg/ml, n.i. = no inhibition"}},
  "note": "Read-outs that look alike come from different tables or passages of the source. No end group written: not given here.",
  "data": [
    {"sequence": "AQEPVKGPVSTKPGSCPIILIRCAMLNPPNRCLKDTDCPGIKKCCEGSCGMACFVPQ (cysteine pairing not given here) [prominent inhibitor]", "values": [
      {"measurement": "inhibition of HLE (in words)", "setting": "human leukocyte elastase", "value": "found to inhibit"},
      {"measurement": "Ki", "setting": "human leukocyte elastase; Poly LC-HPLC peak compared with inhibitor from human skin, read-out: Ki, titrated against HLE", "value": 0.33, "unit": "nM"},
      {"measurement": "Ki", "setting": "human leukocyte elastase; substrate 2 mM AAPVpNA, 1 μg/ml HLE, read-out: DISSOCIATION CONSTANT (Ki), human leukocyte elastase", "value": 0.3, "unit": "nM"},
      {"measurement": "inhibition of porcine pancreatic elastase (in words)", "setting": "[1]", "value": "found to inhibit"},
      {"measurement": "Ki", "setting": "[1]; substrate 0.1 mM AAPV-AFC, method of Green and Work, read-out: DISSOCIATION CONSTANT (Ki), porcine pancreatic elastase", "value": 1, "unit": "nM"},
      {"measurement": "DISSOCIATION CONSTANT (Ki), human cathepsin G", "setting": "human cathepsin G", "value": "n.i."},
      {"measurement": "inhibition of Alpha-chymotrypsin (in words)", "setting": "Alpha-chymotrypsin; [2]", "value": "neither Alpha- chymotrypsin, nor trypsin and plasmin were significantly inhibited"},
      {"measurement": "DISSOCIATION CONSTANT (Ki), Alpha-chymotrypsin", "setting": "Alpha-chymotrypsin; substrate 0.5 mM AAPFpNA, inhibitor up to 1 μg/ml (threefold molar), n.i. = no inhibition", "value": "n.i."},
      {"measurement": "inhibition of trypsin (in words)", "setting": "trypsin; [2]", "value": "neither Alpha- chymotrypsin, nor trypsin and plasmin were significantly inhibited"},
      {"measurement": "DISSOCIATION CONSTANT (Ki), trypsin", "setting": "trypsin; [3]", "value": "n.i."},
      {"measurement": "inhibition of plasmin (in words)", "setting": "plasmin; [2]", "value": "neither Alpha- chymotrypsin, nor trypsin and plasmin were significantly inhibited"},
      {"measurement": "DISSOCIATION CONSTANT (Ki), plasmin", "setting": "plasmin; [3]", "value": "n.i."},
      {"measurement": "IC50", "setting": "Proteinase 3", "value": 9.5, "unit": "nM"},
      {"measurement": "isoelectric point", "setting": "Isoelectric focussing", "value": 9.7, "unit": "pH"},
      {"measurement": "acid stability", "setting": "Acid stability", "value": "acid stable"}
    ]}
  ]
}
